This data set concerns the molecule itself. Briefly: SEC.

Several values for one entry are separate records, joined by “and”; a condition that tells them apart may be missing. Identical values can stand only once.

As usually defined, the stoichiometry N is a count of units in the complex or per binding partner. Take RMKKKDEGSYDLGKKPILQQAPTNEFYA (peptide, UniProt P34901 175-202, looked up) [syndecan-4 cytoplasmic tail peptide, PIP2- mutant (Y192KK to LQQ)]: the “stoichiometry N” value was 4 and 6.

The values above are taken from article PMC2173870 (The Journal of Cell Biology, 2002).
